In paper PMC2901902 (Nature, 2010):

Biological target: human DPF3b PHD12 (tandem PHD finger) (Homo sapiens, UniProt Q92784)
Assay: DPF3b PHD12 binding to modified histone peptides
Settings: H3 peptide residues 1–20, versus H3K14ac

Sequence of human DPF3b PHD12 (tandem PHD finger) (Q92784 261-372): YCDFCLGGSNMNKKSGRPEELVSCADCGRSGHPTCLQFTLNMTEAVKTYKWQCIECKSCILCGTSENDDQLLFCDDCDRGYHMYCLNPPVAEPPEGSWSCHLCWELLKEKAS

With “H3 peptide (residues 1–20): H3 peptide (residues 1–20), not acetylated at K14” the “reduction in affinity when H3 is not acetylated at K14” value was 4 fold.
